Measurements published in ChEMBL document CHEMBL1152703, “Design and synthesis of a beta-lactamase activated 5-fluorouracil prodrug” (Bioorg Med Chem Lett, 2009).

Substrate: O=C(Cc1cccs1)N[C@@H]1C(=O)N2C(C(=O)O)=C(Cn3c(=O)[nH]cc(F)c3=O)CS[C@H]12
Test: Activity at Enterobacter cloacae P99 beta-lactamase by Michaelis-Menten equation

B1: Beta-lactamase (Enterobacter cloacae), P05364 (protein)
chain: MMRKSLCCALLLGISCSALATPVSEKQLAEVVANTITPLMKAQSVPGMAVAVIYQGKPHYYTFGKADIAANKPVTPQTLFELGSISKTFTGVLGGDAIARGEISLDDAVTRYWPQLTGKQWQGIRMLDLATYTAGGLPLQVPDEVTDNASLLRFYQNWQPQWKPGTTRLYANASIGLFGALAVKPSGMPYEQAMTTRVLKPLKLDHTWINVPKAEEAHYAWGYRDGKAVRVSPGMLDAQAYGVKTNVQDMANWVMANMAPENVADASLKQGIALAQSRYWRIGSMYQGLGWEMLNWPVEANTVVEGSDSKVALAPLPVAEVNPPAPPVKASWVHKTGSTGGFGSYVAFIPEKQIGIVMLANTSYPNPARVEAAYHILEALQ
Km: 95.4 µM | Vmax: 3.21 µmol/min/mg
